Sequences and labels used below:
B1: DLC1 (parent)
chain: NDDSADYQHFLQDCVDGLFKEVKE
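Further: lentivirally expressed fusions sorted by FACS into six bins by GFP to DsRed ratio, PSI derived from sequencing read proportions per bin multiplied by bin number.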

Variants of B1 are the subject of this data set. Kind of data set: protein stability index of a GFP-peptide fusion (GPS, HEK-293T) (PSI 1-6); higher = more stable. Particulars: c terminus: a fixed tail appended.
On to NDDSADYQHFLQDCVDGLTKEVKE [F19T], for which the protein stability index is 5.45. As to NDDSADYQHFLQDCVDGLNKEVKE [F19N], the protein stability index came to 5.21. As for NDDSADYQHFLQDCVDGLPKEVKE [F19P], the protein stability index was 5.17. As for NDDSADYQHFLQDCVDGLAKEVKE [F19A], the figure is 5.02; as for NDDSADYQHFLQDCVDGLMKEVKE [F19M], 3.72; as for NDDSADYQHFLQDCVDGLQKEVKE [F19Q], 5.08. With NDDSADYQHFLQDCVDGLLKEVKE [F19L], the protein stability index amounted to 1.51. Consider NDDSADYQHFLQDCVDGLSKEVKE [F19S], for which the protein stability index is 5.67. In the case of NDDSADYQHFLQDCVDGLRKEVKE [F19R], the protein stability index worked out at 4.46. Regarding NDDSADLQHFLQDCVDGLFKEVKE [Y7L], the protein stability index turned out to be 3.03. Consider NDDSADQQHFLQDCVDGLFKEVKE [Y7Q], for which the protein stability index came out at 4.52. For NDDSADEQHFLQDCVDGLFKEVKE [Y7E], the protein stability index was determined as 4.11.

As for NDDSADFQHFLQDCVDGLFKEVKE [Y7F], the protein stability index is 2.05.

Turning to NDDSADTQHFLQDCVDGLFKEVKE [Y7T], the protein stability index was found to be 3.31. On to NDDSADDQHFLQDCVDGLFKEVKE [Y7D], for which the protein stability index came to 4.17. As to NDDSADHQHFLQDCVDGLFKEVKE [Y7H], the protein stability index was determined as 4.36. Consider NDDSADVQHFLQDCVDGLFKEVKE [Y7V], for which the protein stability index was determined as 3. Regarding NDDSADNQHFLQDCVDGLFKEVKE [Y7N], the protein stability index is 5.14. As for NDDSCDYQHFLQDCVDGLFKEVKE [A5C], the figure is 2.05; as for NDDSNDYQHFLQDCVDGLFKEVKE [A5N], 2.9; as for NDDSHDYQHFLQDCVDGLFKEVKE [A5H], 2.55. Consider NDDSGDYQHFLQDCVDGLFKEVKE [A5G], for which the protein stability index turned out to be 2.4. As to NDDSTDYQHFLQDCVDGLFKEVKE [A5T], the protein stability index was 2.46.

For the variant NDDSFDYQHFLQDCVDGLFKEVKE [A5F], the protein stability index is 1.68. As for NDDSADYQHFLQDCVDGAFKEVKE [L18A], the figure is 5.02; as for NDDSADYQHFLQDCVDGHFKEVKE [L18H], 5.37. Turning to NDDSADYQHFLQDCVDGKFKEVKE [L18K], the protein stability index stood at 5.3. On to NDDSADYQHFLQDCVDGTFKEVKE [L18T], for which the protein stability index was determined as 4.96. As for NDDSADYQHFLQDCVDGDFKEVKE [L18D], the figure is 5.73; as for NDDSADYQHFLQDCVDGGFKEVKE [L18G], 5.6. In the case of NDDSADYQHFLQDCVDGWFKEVKE [L18W], the protein stability index worked out at 4.64. In the case of NDDSADYQHFLQDCVDGMFKEVKE [L18M], the protein stability index came to 4.47. In the case of NDDSADYQHFLQDCVDGEFKEVKE [L18E], the protein stability index is 5.3.

For the variant NDDSADYQHFDQDCVDGLFKEVKE [L11D], the protein stability index was found to be 5.47. Consider NDDSADYQHFYQDCVDGLFKEVKE [L11Y], for which the protein stability index is 4.47. Regarding NDDSADYQHFQQDCVDGLFKEVKE [L11Q], the protein stability index was found to be 5.4.

Turning to NDDSADYQHFNQDCVDGLFKEVKE [L11N], the protein stability index worked out at 4.76.

For the variant NDDSADYQHFMQDCVDGLFKEVKE [L11M], the protein stability index was 3.29. NDDSADYQHFGQDCVDGLFKEVKE [L11G]: the protein stability index was found to be 5.35. As to NDDSADYQHFHQDCVDGLFKEVKE [L11H], the protein stability index was 5.08. Consider NDDSADYQHFWQDCVDGLFKEVKE [L11W], for which the protein stability index is 3.78. Take NDDSADYQHFAQDCVDGLFKEVKE [L11A]: the protein stability index is 5.62. With NDDSADYQHFVQDCVDGLFKEVKE [L11V], the protein stability index came to 4.18. NDDSADYQHFPQDCVDGLFKEVKE [L11P]: the protein stability index worked out at 4.51.

On to NDDSADYQHFLQDCVDALFKEVKE [G17A], for which the protein stability index stood at 3.68. For the variant NDDSADYQHFLQDCVDRLFKEVKE [G17R], the protein stability index was found to be 2.01.

In the case of NDDSADYQHFLQDCVDHLFKEVKE [G17H], the protein stability index worked out at 2.37. Consider NDDSADYQHFLQDCVDSLFKEVKE [G17S], for which the protein stability index was determined as 2.58. On to NDDSADYQHFLQDCVDYLFKEVKE [G17Y], for which the protein stability index was found to be 2.44. As to NDDSADYQHFLQDCVDDLFKEVKE [G17D], the protein stability index was determined as 4.28. On to NDDSADYQHFLQDCVDNLFKEVKE [G17N], for which the protein stability index was 2.39.

For NDDSADYQHFLQDCVDLLFKEVKE [G17L], the protein stability index was 1.82. With NDDSADYQHFLQDMVDGLFKEVKE [C14M], the protein stability index turned out to be 3.63.

NDDSADYQHFLQDWVDGLFKEVKE [C14W]: the protein stability index was determined as 4.31. In the case of NDDSADYQHFLQDAVDGLFKEVKE [C14A], the protein stability index came to 2.33. As to NDDSADYQHFLQDHVDGLFKEVKE [C14H], the protein stability index is 5.11. Turning to NDDSADYQHFLQDPVDGLFKEVKE [C14P], the protein stability index came out at 5.07. In the case of NDDSADYQHFLQDKVDGLFKEVKE [C14K], the protein stability index was 4.78. In the case of NDDSADYQHFLQDRVDGLFKEVKE [C14R], the protein stability index worked out at 4.87. With NDDSADYQHFLQDTVDGLFKEVKE [C14T], the protein stability index was 4.12.

As for NDDSADYQHFLQDLVDGLFKEVKE [C14L], the protein stability index was found to be 1.97. As for NDDSADYQHFLQDQVDGLFKEVKE [C14Q], the protein stability index came to 4.71. Take NDDSATYQHFLQDCVDGLFKEVKE [D6T]: the protein stability index was 2.5. With NDDSARYQHFLQDCVDGLFKEVKE [D6R], the protein stability index came out at 2.94. For the variant NDDSAAYQHFLQDCVDGLFKEVKE [D6A], the protein stability index was 2.32.

As for NDDSAQYQHFLQDCVDGLFKEVKE [D6Q], the protein stability index came to 3.12. Regarding NDDSAEYQHFLQDCVDGLFKEVKE [D6E], the protein stability index was determined as 3.29. Take NDDSACYQHFLQDCVDGLFKEVKE [D6C]: the protein stability index was found to be 2.8.

Take NDDSAFYQHFLQDCVDGLFKEVKE [D6F]: the protein stability index came out at 2.81. NDDSADYQHFLQDCGDGLFKEVKE [V15G]: the protein stability index stood at 5.45. For NDDSADYQHFLQDCNDGLFKEVKE [V15N], the protein stability index is 4.78.

NDDSADYQHFLQDCWDGLFKEVKE [V15W]: the protein stability index is 3.8. As for NDDSADYQHFLQDCRDGLFKEVKE [V15R], the protein stability index turned out to be 4.73. Consider NDDSADYQHFLQDCKDGLFKEVKE [V15K], for which the protein stability index came to 4.71. As to NDDSADYQHFLQDCHDGLFKEVKE [V15H], the protein stability index is 4.94.

As to NDDSADYQHFLQDCPDGLFKEVKE [V15P], the protein stability index is 4.6. NDDSADYQHFLQDCTDGLFKEVKE [V15T]: the protein stability index came to 5.09. With NDDSADYQHFLQDCFDGLFKEVKE [V15F], the protein stability index was 3.85. Consider NDDSADYQHFLQDCADGLFKEVKE [V15A], for which the protein stability index came out at 4.04. For the variant NDDSADYQNFLQDCVDGLFKEVKE [H9N], the protein stability index turned out to be 3.02.

NDDSADYQFFLQDCVDGLFKEVKE [H9F]: the protein stability index came out at 2.32. For NDDSADYQKFLQDCVDGLFKEVKE [H9K], the protein stability index stood at 2.63. As for NDDSADYQAFLQDCVDGLFKEVKE [H9A], the figure is 3.13; as for NDDSADYQQFLQDCVDGLFKEVKE [H9Q], 2.23. Next, NDDSADYQLFLQDCVDGLFKEVKE [H9L]: 2.21; NDDSADYQIFLQDCVDGLFKEVKE [H9I]: 2.48. Turning to NDDSADYQRFLQDCVDGLFKEVKE [H9R], the protein stability index came out at 2.86.

Consider NDDSADYQGFLQDCVDGLFKEVKE [H9G], for which the protein stability index stood at 2.62. For the variant QDDSADYQHFLQDCVDGLFKEVKE [N1Q], the protein stability index turned out to be 2.69. As for DDDSADYQHFLQDCVDGLFKEVKE [N1D], the protein stability index was found to be 1.72.

Take MDDSADYQHFLQDCVDGLFKEVKE [N1M]: the protein stability index amounted to 1.79. Take GDDSADYQHFLQDCVDGLFKEVKE [N1G]: the protein stability index was 1.9. With HDDSADYQHFLQDCVDGLFKEVKE [N1H], the protein stability index was 2.29. In the case of WDDSADYQHFLQDCVDGLFKEVKE [N1W], the protein stability index is 1.28.

These data come from the supplement of paper PMC10567573.
